# Test results from patent publication US20240016917A1 (ACADEMIA SINICA, published 2024).
# B1: monoclonal antibody (mAb) m31A7 (antibody, V domains shown)
# VH: EVQLQQSGPEMVKPGASVKISCKTSGYTFTEYTIYWVKQSHGKSLEWLGGINPNIGDTTYNQKFKGKATLTVDTSSSTAYMELRSLTSEDSAVYYCAREVYNYSFAYWGQGTLVTVSA
# VL: DIVMSQSPSSLAVSVGEKVTMSCKSSQSLLYSSNQKNYLAWYQQKLGQTPKLLIYWASSRESGVPDRFTGSGSGTDFTLTISSVRAEDLAVYYCQQYYRYPLTFGVGTKLELKR
# Tests used:
# [1] = molecular target: Beta (SARS-CoV-2)
# [2] = molecular target: D614G
# [3] = molecular target: WT
# [4] = molecular target: Alpha (SARS-CoV-2)
# [5] = molecular target: T1, SARS-CoV-2 S protein (entire S ectodomain) (SARS-CoV-2, UniProt P0DTC2 14-1209)
# [6] = molecular target: T1, SARS-CoV-2 S protein (entire S …); assay: biolayer interferometry (BLI)
binder,measurement,setting,value
B1,EC50,[1],32.5 pM
same,EC50,[2],32.1 pM
same,EC50,[3],68.5 pM
same,EC50,[4],44.6 pM
same,EC50,[5],31.2 pM
same,Kd,[6],70.9 pM
